{
  "source": "paper PMC3792889",
  "target": "Growth factor receptor protein binding protein 2 (Grb2), endogenous (mouse (endogenous in STHdhQ7/7, STHdhQ111/111 and Neuro2A cells)) (UniProt Q60631)",
  "sequence (Q60631 whole entry, the tested form may be a part)": "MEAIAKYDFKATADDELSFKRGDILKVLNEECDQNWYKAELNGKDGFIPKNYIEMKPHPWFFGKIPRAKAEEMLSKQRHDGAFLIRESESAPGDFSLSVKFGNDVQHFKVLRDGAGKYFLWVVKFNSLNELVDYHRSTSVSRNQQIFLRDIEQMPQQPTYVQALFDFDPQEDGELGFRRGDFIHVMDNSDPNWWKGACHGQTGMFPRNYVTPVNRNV",
  "test": "co-IP; extracts of Neuro2A cells transfected with 23Q or 145Q Httex1 GFP; precipitated with anti-Grb2 antibody and Protein A/G beads; blot with anti-GFP; densitometry, n=3",
  "data": [
    {"substance": "145Q Htt exon1 GFP (domain or fragment)", "values": [
      {"measurement": "fold precipitation against 23Q Httex1 GFP", "value": 2, "unit": "fold"}
    ]}
  ]
}
